Literature values as cited in article PMC6175838.

What was measured:
[1] = molecular target: claudin-3 (Homo sapiens) (UniProt O15551); test: given as Ka
[2] = molecular target: claudin-4 (Homo sapiens) (UniProt O14493); test: given as Ka
Sequence of UniProt O14493 (O14493 whole entry): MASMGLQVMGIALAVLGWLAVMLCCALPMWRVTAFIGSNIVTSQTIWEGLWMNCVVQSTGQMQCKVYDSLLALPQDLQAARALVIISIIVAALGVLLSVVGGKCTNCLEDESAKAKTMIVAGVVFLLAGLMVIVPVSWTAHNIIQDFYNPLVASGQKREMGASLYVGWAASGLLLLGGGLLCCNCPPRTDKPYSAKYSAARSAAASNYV

Sequence of UniProt O15551 (O15551 whole entry): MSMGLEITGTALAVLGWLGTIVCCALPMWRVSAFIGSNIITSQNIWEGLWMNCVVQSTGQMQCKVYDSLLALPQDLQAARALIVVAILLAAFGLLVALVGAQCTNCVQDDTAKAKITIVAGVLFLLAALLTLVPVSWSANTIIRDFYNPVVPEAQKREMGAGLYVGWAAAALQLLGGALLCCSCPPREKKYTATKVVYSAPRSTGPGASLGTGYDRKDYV

With “C-CPE C-terminal domain (from UniProt P01558)” as the substance, how does the Kd [1] read?
Its Kd is 0.01 µM.

And the Kd [2]?
The Kd was 0.01 µM.
